According to publication PMC6048507:
Read-outs that look alike come from different tables or passages of the source.

What was measured:
[1] = molecular target: mavirus cysteine protease (MVP) (mavirus)
[2] = molecular target: mavirus major capsid protein truncated at the C terminus (MCPΔC, res. 1–516), purified capsomer (mavirus)
[3] = molecular target: mavirus major capsid protein truncated at the C terminus (MCPΔC, res. 1–516), purified capsomer (mavirus); assay: crystal structure
[4] = molecular target: mavirus major capsid protein, full-length (flMCP), purified capsomer (mavirus)
[5] = molecular target: mavirus major capsid protein, full-length (flMCP), purified capsomer (mavirus); assay: crystal structure
[6] = molecular target: mavirus penton protein (minor capsid protein, MV17), purified (mavirus)
[7] = molecular target: mavirus penton protein (minor capsid protein, MV17), purified (mavirus); assay: crystal structure

“mavirus cysteine protease (MVP) (enzyme)” showed a stoichiometry N [1] of 2.
For “mavirus major capsid protein truncated at the C terminus (MCPΔC, res. 1–516), purified capsomer (domain or fragment)”, the stoichiometry N [2] was 3 and the stoichiometry N [3] was 3.
In the case of “mavirus major capsid protein, full-length (flMCP), purified capsomer (natural protein)”, the stoichiometry N [4] is reported as 3 and the stoichiometry N [5] is reported as 3.
“mavirus penton protein (minor capsid protein, MV17), purified (natural protein)” was tested, and the stoichiometry N [6] was 5 and the stoichiometry N [7] was 5.
